# Results reported in a protein production outcome set (Wang et al. 2014).
# Experiment: label from the status in PepcDB records
row,Sequence,protein production
1,MKPNIVLIMVDQMRGDCLGVNGNEFIETPNLDMMATEGYNFENAYTAVPSCIASRASILTGMSQKSHGRVGYEDGVSWNYENTIASEFSKAGYHTQCIGKMHVYPERNLCGFHNIMLHDGYLHFARNKEGKASTQIEQCDDYLKWFREKKGHNVDLIDIGLDCNSWVSRPWGYEENLHPTNWVVNESIDFLRRRDPSKPFFLKMSFVRPHSPLDPPKFYFDMYKDEDLPEPLMGDWANKEDEENRGKDINCVKGIINKKALKRAKAAYYGSITHIDHQIGRFLIALSEYGKLNNTIFLFVSDHGDMMGDHNWFRKGIPYEGSARVPFFIYDPGNLLKGKKGKVFDEVLELRDIMPTLLDFAHISIPDSVEGLSLKDLIEERNSTWRDYIHGEHSFGEDSNHYIVTKKDKFLWFSQRGEEQYFDLEKDPKELTNLINSEEYKERIDYLRKILIKELEGREEGYTDGNKLLKGYPVSTLKHIR,failed
2,MKPRGICFFDMDGTLLNSESKVLDTSLQALDKLRENNVIPVIATGRTLIEISHQMKITGIESAVMMNGQMAIFEGEKVYEDVIDADLLDRLTEEAKSQNVEVCYYNDKRIGATASTPVVKAHYDFLGEPMPKVRPNMYKEETINMALLLLETGDDYFPERFPELQFVRNTPFSNDVLRKGGSKAVGISKLLEVMGYQDVPTYAFGDGMNDLEMFGAVDYAIAMENAVPLLKEKADFVTKDNNSDGIMLGLKQFDLI,failed
3,MKPRISVIIPTYNREELLRRAIESVLDQTFDDFEILVIDGAKSESTRELVRSFGDGRIRYIPQKGKGIANARNLGVSKARGEFIAFLDDDDRWRRDKLELQLELFKVLPQSYGVVYTAFTYYYLEKDKVLGIKHPRASGDVYKHLLKDNITGTSTIMVKRECFKKVGLFREDFVTCEDWDMWLRMAKVCYFGAIDEPLVDYSIHSGQFSFAKYLEGRYKMIEKHLDIKRNPRVLSYHLLQIGVLKLFSGDKRGVEDLLKAFRLNPTIRGNIWDILSSFVDVRTRIYILKFLGRLLEHHHHHH,not failed
4,MKPSGEDQAALAAGPWEECFQAAVQLALRAGQIIRKALTEEKRVSTKTSAADLVTETDHLVEDLIISELRERFPSHRFIAEEAAASGAKCVLTHSPTWIIDPIDGTCNFVHRFPTVAVSIGFAVRQELEFGVIYHCTEERLYTGRRGRGAFCNGQRLRVSGETDLSKALVLTEIGPKRDPATLKLFLSNMERLLHAKAHGVRVIGSSTLALCHLASGAADAYYQFGLHCWDLAAATVIIREAGGIVIDTSGGPLDLMACRVVAASTREMAMLIAQALQTINYGRDDEK,not failed
5,MKPTLLVLAAGMGSRYGGVKQIAAVGRHDETLLDYAVYDAMNNGFGKVVFIIREDIENDFRERFFNRIARNCNADYVFQSMDGFLTDEQIKRAVNRKKPWGTAHAILSAELKINEPFAVINADDYYGRSAYKTIATHLSTLSNDSTEHAMVGYILDKTLSRSGSVSRGVCQVGNGYLIGITEHKDIAYKKEGSVEKIVSEHEGKTVEFSGKETVSMNLFGFSPKIFDFMNEYFKDFIHKYAESEKAECLLPEGVGAMMKKGLGKVKVYTTTERWFGMTYPEDREIVKKELENKVKEGYYPEFLWR,failed
6,MKPVAPRSFFAMDFLEFITAWEGKWLSQRTNYSFEQNEAGNAKSDVTVQRWDSQTELGRSLLERAGLKNQGELILLQLSWDNSVDWGKSKQKGTIYYGFLPDADHGDRGQLWRGTTNSNLAFLRGDYHLGSDECLTLNLGDGETSLTERHWYASPNLRLRTSLIQQGEGYSHSAFYSDIRRLPPAE,failed
7,MKQEEEPWIDHLKQRVNEYEKPLPENDWNHFQTEFFTPYLHKRRRMKTMRIAAVFFLIFIPFATTFYFLQTEKHEAASPVVSLPACQPRSITGSPSIMPENKLLQDRTKSKTASLTRPPIQTSIHTDTANNIETECMPPVQDTIRDTESVHKRPSGHKHFALPYKRSGYTLALAISAGNNGASTGFINKTFSRGDIGSSHKDEIMYWSDFKDYLQEYPSDFPDAQAYEALLQIANDNTGRPMTEYTHYNLPVSIELSLRKSISRHWGVSAGLQYTYLSSESSIGEDSKWVKRQKLHYIGLSVKLDRRLYTTRTFSFYATGGGTIDKSVSGKLEQDFIVQKEKIYSSTENLKIKPFQFSIHAALGIQYNINPTLGAFIEPGTVFYFKDGSFKNTIRDKHPLHFNLQLGVRWNY,failed
8,MKQEFVAAIEIDGTGRIHVTPGESQFPYIYREAMEVSWNESTRSLHSPVPREWSYAQWLQQIFAAASEQGVKLVLGPNTRWVNVPNELRAELTHAAAA,not failed
9,MKQGKISDYVNPVPIKITDDKAIFKVEKLVPTPYIERVLPLEYAPLYEQLAELDTAIPKIVCLEKSDRLTVIEEYIDSPRLDQYLETHKLTSAQIHDLICQLLDVLAVLHQQIPPIIHRDIKPENIFYDGQKLILADFDIARNMQEDADRDTRILGSVGYAAPEQFGFSQSGPASDFYAVGVLMNVLYTGYLPSVRLYKGPEREIIEKATHINSQKRYQSAQEFKDAITGLGRSSWLLPGFRSHQPARMLTAGCGYLLMLFSSFSMDAKSDSAADSFLLRLSFFMVLFLIVLFACNYRNIKSICLFHSSKSKFTRACGIIISYLLVATVLTTALAALSVAISSFGH,failed
10,MKQGPSSEDDCFSLLKQFEHVLESDPLIDEVGFIHPSQFTMLDKEAGFSNEFQPNNGTSSKFWNQDHKLGISTDILVQLCKDAKHVFLLALQEYKSHGNACDESQIKNISCSPCIPESDVMKHSQSVLLLSSDFGTAWNARKLILSKKDHLSAFTEELRLSGLILSNSPKSESTWSHRRWIIKMISQSFSTLQEIITKESELVESIGERSKMNYRAWYHRCWLVSYMTIEQVIQELNKSKRWAGLHVADSSCFHYRRVRAAYSVDVIVRLMLKILESLYVKGSSAYDKTEARKIWKEELDWNEELVERYVGREALWLHRRFLSLNWIMYFACNHSDASPETGESIIMNEEIAIFIDNEIRLLDSSMTVPDTKFEDFQAQALHAAVYTLWLTKSIPVLWRMLEEKLGTEKVKCVLNTIAQERPSLLHHLVNV,failed
11,MKQHILVLEDANQRRTIILDEQQYSIGRHSGTSIQIHSRQASRHHATLMRKTNSKTNEECFWIIDGDLEGNKSQNGVFVNGEKRLIHELKNGDLINFGCSINASYHVTGEGFGESSSQPVEILPQTSPYNEAVSAQIASSYNTREGVDLLAGSNDETFHEQSYLDTATDLPNQTLFLEYLNIALSNARRHHAQVGVLLCQINNWSDLKRKRGDAVANAFLQEAGQKLKSNLRNGDIVSRWDKDEFIFLVSKVQDTSSLLGIAQRLMKPVLAPVTAGGRPFQPEITYGVALYPVDGEQVNDLIGHIRENLQQLLPQPTNPGSGEADDHIETAVDVRIGAPQPVPGLSDSDQKRLAIVEKRLLRALEQHELELYYQPQINWRKKTIEAMEAFIRWQHPQKGLLPPGQFLPWSDQTEFMVPLTRWILETACQQNVLWQQQLQTPFLVSVNISEKQFYHPLLKNMVMEAIAMAKMETHYLELEIQESTVMKDFGLAQQIITNLHNYGVGFSLDDFGTDYMSLRCLQDLPFQKLKIDKSLTAQLLEQTDNVPNLTMMETLINLGKTFNLKVVAEGVEQEEQINILDSLNCFFMQGYCFSEPLNILAANSFLHKYIAGN,failed
12,MKQIIDIENWERKENFNFFRHFQNPQLSITSEVECGGARQRAKAAGQSFFLHYLYAVLRAANEIPEFRYRIDPDGRVVLYDTIDMLSPIKIKENGKFFTTRFPYHNDFDTFYQEARLIIDAIPEDGDPYAAENEEVADGDYGLILLSATPDLYFTSITGTQEKRSGNNYPLLNAGKAIIREGRLVMPIAMTIHHGFIDGHHLSLFYKKVEDFLK,not failed
13,MKQKELWINQIKGLCICLVVIYHSVITFYPHLTTFQHPLSEVLSKCWIYFNLYLAPFRMPVFFFISGYLIRRYIDSVPWGNCLDKRIWNIFWVLALWGVVQWLALSALNQWLAPERDLSNASNAAYADSTGEFLHGMITASTSLWYLYALIVYFVVCKIFSRLALPLFALFVLLSVAVNFVPTPWWGMNSVIRNLPYYSLGAWFGATIMTCVKEVPLRRHLLMASLLTVLAVGAWLFTISLLLSLVSIVVIMKLFYQYEQRFGMRSTSLLNVIGSNTIAIYTTHRILVEIFSLTLLAQMNAARWSPQVELTLLLVYPFVSLFICTVAGLLVRKLSQRAFSDLLFSPPSLPAAVSYSR,failed
14,MKQKSLNPLSSSSPNYDEMIQENFKPHWIIGIDPNLSGALAVLKFDDKGSCFAQVYDTPQLEVVVQNIRTRSFNEKSMLELIRSLDVPSGTKAFVAKYIHPENAITAYNDGLGCGLWTLLTSSISVIYVTPSTWDKHFNLSIWSLDGGRKLALEMFPSLKLTTKIDDNARANALLIAAYGHATSDTRYYSFSQIK,failed
15,MKQLPKTRTALLLAFLVIMWGVNWPLSKAALAYSPPLLFAGIRTLIGGLLLVIVALPRIHKLRLKETWPIYLVSALLNITLFYGLQTIGLNYLPAGLFSAIVFFQPVLMGVFSWLWLGESMFVMKVIGLILGFAGVAVISAAGFGGHISVIGVLLALGSAVSWALGTVYMKKTGSRVDSIWMVALQLTIGSVFLLISGFWTESFSAIQWTAPFITSLLFISVFVIALGWLVFFTLVGSGEASKVASYTFLIPLISIVASSIFLHEPLTLSLLAGLLLIVTSICLVNTKSKAQKAAAIGINEKAAQ,failed
16,MKQPATPNAAEETKSEQKQKSKKFPTPTELISHYQKRGLEPAEASIKVIEDLQNALVRVVSSSRNASSKDKLVTDARKIDAINGRLAVVDAKLETKPGYVETFALGLASGATLNGISAVWPHVTRGIGQIWSAVRIGTDPSSTS,failed
17,MKQTAESIRDRFMKLGIDVPVEDIESRLDELIKKFKVPSNEAQRSVTNYFLKKYSIPKNEFYVRQAEPQLTKIVDIVENGQWANLKAKVIQLWENTHESISQVGLLGDETGIIKFTIWKNAELPLLEQGESYLLRSVVVGEYNDRFQVQVNKNSSIEKLSEPIEVGGGDFTPAAREAELRNIADLTGNQWATVRGKVIQLWENSHESIEQAGLIGDETGVIKFTNWASSELPDMEEGRSYLLKNVVVNEWNGKAQVQLNRSSSIEELDEDIEVRTSMSSYFGAMVDIQTGSGLIKRCPECKRALVKGACAEHGKVKGEYDLRIKAVLDSGTSTQDALINRELTEELSGISLDSAIAMAADALDPGVVLDKLKHELVGRYYTITGHKLDRYILVESITPRTSLDRELLDQMLAEPIAQPEVELEHHHHHH,not failed
18,MKQWADDENLPMERYKNYQMIVPAFIIKDILDGKIPETFEDSKNIKMIEASWGEESYTKGHIPTSVHVNTDIIEPPPTWMLDNDDNLTKFALDYGLTKDDTVIVSSSTPMASYRLAVILRYIGVKDVRVLNGGTNSWLSAGYELEFISNPKLEHHHHHH,failed
19,MKQWLAAMETSVLVMGALRLFSGSAEIFAALLMLYVNDAKKALFINGMLAFVGPTVLILTMTIGIASVASEISFLKLFFLALGICCIFIALLK,failed
20,MKRAAAKHLIERYYHQLTEGCGNEACTNEFCASCPTFLRMDNNAAAIKALELYKINAKLCDPHP,not failed
21,MKRDGHTHTEFCPHGTHDDVEEMILKAIELDFDEYSIVEHAPLSSEFMKNTAGNQEAVTTASMSMSDLPYYFKKMNQMKKKYASDLLIHIGFEVDYLIGYEDFTRDFLNEYGPQTDDGVLSLHFLEGQGGFRSIDFTAEDYNEGIVQFYGGFEQAQLVYLAGVKQSIEADLGAFKPRRIGHISLCQKFQQFFGADGRDFTAEVIAEFEAILALVKKRGYELDFNTAGLFKPLCKETYPPKEIVTLARALEIPFVYGSDSHGVADIGRGYNTYCQKLEHHHHHH,not failed
